One data set deals with T1, MucA' (plasmid pKM101 (expressed in E. coli …, UniProt Q79BK8 26-146)).
T1 sequence: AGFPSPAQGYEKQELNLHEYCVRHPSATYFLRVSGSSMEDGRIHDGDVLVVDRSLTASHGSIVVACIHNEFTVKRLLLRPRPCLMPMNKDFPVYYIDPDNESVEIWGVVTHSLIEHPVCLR
Briefly: SPR; MucA' alone; SPR (BIAcore 2000, SA chip): 20 mM HEPES pH 8.0, 50 mM K-glutamate, 10 mM Mg acetate, 5% glycerol, 0.1 mM EDTA, 2 mM DTT, 0.05% Surfactant P20 (1% P20 in MucB sample); temperature not stated. Particulars: protein: recombinant; tags: none stated (pYG8506, pET-16b based); chain copies: 2; label: 5'-biotin; single strand. (In SPR one partner is held on a chip, and binding of the other changes the refractive index at the surface.)

The target in the next data set is T2, MucB (plasmid pKM101 (expressed in E. coli …, UniProt Q79BK7 1-421)).
T2 sequence: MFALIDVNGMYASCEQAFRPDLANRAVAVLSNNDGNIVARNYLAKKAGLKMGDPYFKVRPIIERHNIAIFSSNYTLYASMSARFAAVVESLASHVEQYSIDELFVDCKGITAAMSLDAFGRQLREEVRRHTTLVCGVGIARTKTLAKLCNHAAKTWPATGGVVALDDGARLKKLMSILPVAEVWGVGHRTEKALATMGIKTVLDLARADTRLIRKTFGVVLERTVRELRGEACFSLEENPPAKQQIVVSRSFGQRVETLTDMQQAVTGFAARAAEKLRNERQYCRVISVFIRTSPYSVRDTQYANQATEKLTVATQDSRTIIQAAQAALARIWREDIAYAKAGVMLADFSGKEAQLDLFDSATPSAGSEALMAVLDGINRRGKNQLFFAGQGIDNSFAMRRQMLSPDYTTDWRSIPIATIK
Briefly: SPR; MucB 0.26 uM alone; 10 mM Mg acetate; SPR (BIAcore 2000, SA chip): 20 mM HEPES pH 8.0, 50 mM K-glutamate, 10 mM Mg acetate, 5% glycerol, 0.1 mM EDTA, 2 mM DTT, 0.05% Surfactant P20 (1% P20 in MucB sample); temperature not stated. Particulars: protein: recombinant; tags: none stated (untagged construct pYG8512); label: 5'-biotin; single strand.

B1: 73-mer ssDNA oligonucleotide (ssDNA)
DNA: GCGGCGGTTGAGTAGCTCTTCTTCCAGCACGTTTTCGCCGATAATACCGGGATCGACCACGCCATCCATTACC
Turning to B1, the binding result is listed as “no binding” with MucA' and “binds” with MucB.

For the origin of these results see article PMC6495647, “Purification and interactions of the MucA’ and MucB proteins constituting the DNA polymerase RI”.
